Data on 15 molecules can be found in US20190352664A1, “COMPOSITIONS AND METHODS FOR CONTROLLING GENE EXPRESSION” (priority 2017, published 2019).

To fix the notation:
B1: AT2G35510.1_1: uORF of AT2G35510.1; peptide SEQ ID NO: 11 (nucleic acid)
DNA: ATGGCTCGTCTTTTTCCAAACGATTTCTTCTTCTTCGTCGTCGCCGGTTTAGGGTTTCCGTTGCTGTAG
modifications: listed as DNA, chemistry not fully specified
B2: AT3G63340.1: 5′ UTR of transcript; Protein phosphatase 2C family protein (nucleic acid)
DNA: TCTTCTTCTTCGTTTTCAGGCGGGTGGAGGAGCTCAGAGCCTTCCAGAGGTAACCAACCTTTTATTACCGACAAGATTCTGCCACACAATTATTACATATTTTTGTTCCCATGAAGCAATTGTTCCTTTCAAGCATGTTTACGAGCAAAAGAGTGAAAGGGTAGCTTGATTTTTGTCTACTCTAGCTTCATTTTCTGGCGATCTTTACTTGAGATTTAAACATTTTGCTCTCGGATTGATAATAAAGAAGAATTTGGAATATCAGTAGGTTTGGTTAGGACTCTCGGATTCTGTTGTCGGTTAGATATTTGTTTTGTTTAATCCCTAGATTTAGCAGAGAAATCCCTCAAATCTCACACAATCCATGTAAGGAAGAAG
B3: AT3G18140.1: 5′ UTR of transcript; Transducin/WD40 repeat-like superfamily protein (nucleic acid)
DNA: ATGAGAAAAGCTTGGTAAAAACCCTATTTTTCTTCTTCTCTTCAATTTACAGTTCTCTGCACCTTTTTCTTTCCCCTGTTTTTTGATCCTCAATCACCAAACCCTAGCTTGTTCTTCTGTTGATTATTTCGAAAAGGGGGTTTGTTTGTTTTCTGGGAATCAGCAAAAATCACGAAATGGTTGGTTTAATATTTCAATCGGGATAAAATCGATCGAAA
B4: AT2G42950.1: 5′ UTR of transcript; Magnesium transporter CorA-like family protein (nucleic acid)
DNA: ACATTCATCTCTCTCTCTCAGTCAAATTGTTGTTTTCTTTCTTCGAATCGGTGCAGAAAATTCAGGGAAGTTCTGGGGAAGGTTGTTGCGTTTGACTCCTTTGGCTTAGTTTTCTTTCGAATTCCGTGCTTCCTGATGATCTTACGTGAAATTGCAGCCTAAAATTTCGAGATTGTTTTTTTTACTCAGAAAACGAGATTTGACTGATATGAATCGAAAATCTGTGATTTAAAGTGAAGC
B5: AT4G18570.1: 5′ UTR of transcript; Tetratricopeptide repeat (TPR)-like superfamily protein (nucleic acid)
DNA: ATTTTTATTACTCTCTCAAGTAGTCTCATCTTCTTCTTAATCCAAAGGCCCAAACTTTGAATCATCACTATCACTCTCTCTCTCTCTCTCTATCTCTCAAGAACTGCACGGACAACGACATGCTTTTAATTTCCATGCAAATCTCTCCTTTCTTCTCAAGTCATTTTTGAAAATCAATCAAAAAACTGAAACTTGGTGGAGCTTTTATCATTCACTCATCA
B6: AT2G35510.1: 5′ UTR of transcript; similar to RCD one 1 (nucleic acid)
DNA: CAAGAGTAGACCGCCGACTTAGATTTTTTCGCCGACGAGAGAATATATATAAATGGCTCGTCTTTTTCCAAACGATTTCTTCTTCTTCGTCGTCGCCGGTTTAGGGTTTCCGTTGCTGTAGCAATTTTCTCTCGCTTCTCTCTCCCCTTTTACAGTTTCTCTTATATTGCTCTTGCCTTGCGTCCAATCTCAAGAGTTCATAAGAGTTGACATTTGTGAACATCGAAGAAATACGGTGACGTTTCTTCTCTGATTACTTTTTGCCAACATGAATACTAATGTATTTATCAACAAGTGCTACAGCCTGTTTTTTTCGAAGCTGTTGGTGAGTTCCCATCCTTAGTACTGCTAGACAGTTCGGTGTGTTAGTTGACTTTATATTCAAGGTTATAGGTTTAGTGTTGTTAGTAGAGAAAA
B7: AT3G56010.1: 5′ UTR of transcript (nucleic acid)
DNA: GTGTTTAGCTTCTTCACTACCACACAGAAACAGAGTTTCCGTCTTTCATCTTCCTCCATATGCGTCGCTCTTAAAAACCTAATTCACA
modifications: listed as DNA, chemistry not fully specified
notes: 5′ UTR of transcript
B8: AT3G55020.1: 5′ UTR of transcript; Ypt/Rab-GAP domain of gyp1p superfamily protein (nucleic acid)
DNA: GTCACACATGTAATAAACCTTGGTCGACAATCTCGCCCTTTCCATGTGATTTCTCCACTTCCTCTCTCTCTCTACTGCAACTTCCTCCTCCTGCTTCAACTTCATTCGGGTAATGATGAACTAGCGTAGAGATTTGGATCTTCTTCTTCGTCCTCTCACCAACTCTTCACCGGTTAGATCTCTTTTTCACGCTAACGA
B9: AT4G11110.1: 5′ UTR of transcript; SPA1-related 2 (nucleic acid)
DNA: CTTACTTAAACACAGTCAAATTCATTTTCTGCCTTAGAAAAGATTTTTATCGAAAATCGACGTTTTTGAAAAAACTCAAATTATCGTCGTTTTGTTCTCAGATTTCTTCTGCTCTCTTCTTCTTCTCCTTCTTCTTCGTTCCACCGCCTCTGTTGCTTTATCTTCTTCTTCCTTCCTTCGATTGTTGATTACGTCGGTGGATCTTTGTTCTCCTCTGTGTTGTTTTCATTGCTAGATTTCGTCAATGATTGGCTTCTCACGATTCGATTTTTCCGGCTCCTGTTCTTAATTTCCTCTGAGAGA
B10: AT3G15030.1: 5′ UTR of transcript; TCP family transcription factor 4 (nucleic acid)
DNA: AGATTTTTTTTTTAAACAAAGAATGGAAAAAAATGAATAAATTTGGGAAACGAGGAAGCTTTGGTTACCCAAAAAAGAAAGAAAGAAAAAATAAAAAAAAATAAAAAGAAAAGCTTTCTCTGGGTTTTTCTTGATTGGTCAATTACACATCTCCCTTTCTCTCTTCTCTCTCTCACCTTCGCTTGCTTTGCTTGCTTCATCTCTTTGGTCTCCTTCTTGCGTTTTCTATTTACTACACAGACCAAACAATAGAGAGAGACTTTAAGCTATAGAAAAAAAGAGAGAGATTCTCTCAAATATGGGTTAGTCCACAATTTTCACTAAACCTCTTCTTCTTAGGATTGTTTTTAGGGTTAGGGTTTTGAGGTGAGGAGAGCAAGTATGCGGGAGTTTCATCCTTTTTGAGTTACTCTGGATTCCTCACCCTCTAACGACGACCACCGTCGCCGCCGCCGCCGCCGTCTCGACGAATATGCTCTACCA
B11: AT4G17840.1: 5′ UTR of transcript (nucleic acid)
DNA: ATCAAAATCAATGATCAAGGTAACGTAGTCAAGTTCAATTACTCTTTGTCAAATTTAAGTGGTCTCTATTACTAAACTATACACAACCGTTAGATCAAATAATTCTCTACCATCCAACGGTCCAAAGTCTCCACTTCTATTTATTACAATAAAATGAGAAAATAAAAACGCGCGGTCACCGATTCTCTCTCGCTCTCTCTGTTACTAAATGAAGAAGAGAATCTCTCCGGCGAGATCACCGGCGTTATTCCGATAATTTCGCCTGAGAGTTGTCGCATGTTATAA
B12: AT2G47210.1: 5′ UTR of transcript; myb-like transcription factor family protein (nucleic acid)
DNA: AAACTGCTGACCGATCCCAAAGGTTGAAAGATTCTTTGGCGCTAAAAAATCCCCAGTTCCCAAATCGGCGTCCTCGTTTGAAACCCTAATTCCTGAATCGAAGCAGATCCTGATCGAATCGAAGGTGTTCGAATGATAGCTACCCAGTAAATTCAGAACCCTAATTAACA
B13: AT1G16700.1: 5′ UTR of transcript; Alpha-helical ferredoxin (nucleic acid)
DNA: AAATTAAGAGACATCTGATCGAATTTTGTTCCGACGACCGTGAATCACCAGCAAAGGATTCGTGTCAATGTTCTTGTGAGATCGAACTTTCTCTGGGTTCGTGCAGAAGCTTTGCTTTTTTGAGTATCGCGTTTAAGGCACATCGAAGAAGAGAGACCCTAATTTGATATTTTGAGTTCTATCG
B14: AT3G03070.1: 5′ UTR of transcript; NADH-ubiquinone oxidoreductase-related (nucleic acid)
DNA: AAATAAATGCGTTGTTTGGTACAGCTTCACGAACAATCTCTCTCTCGATAGATTCTTCTTACCTCTGAATTTCTCGTTGTTGGAACA
modifications: listed as DNA, chemistry not fully specified
notes: 5′ UTR of transcript; NADH-ubiquinone oxidoreductase-related
B15: AT2G34630.1: 5′ UTR of transcript; geranyl diphosphate synthase 1 (nucleic acid)
DNA: AAGCGAACAAGTCTTTGCCTCTTTGGTTTACTTTCCTCTGTTTTCGATCCATTTAGAAAATGTTATTCACGAGGAGTGTTGCTCGGATTTCTTCTAAGTTTCTGAGAAACCGTAGCTTCTATGGCTCCTCTCAATCTCTCGCCTCTCATCGGTTCGCAATCATTCCCGATCAGGGTCACTCTTGTTCTGACTCTCCACACAAGTAGGGTTACGTTTGCAGAACAACTTATTCATTGAAATCTCCGGTTTTTGGTGGATTTAGTCATCAACTCTATCACCAGAGTAGCTCCTTGGTTGAGGAGGAGCTTGACCCATTTTCGCTTGTTGCCGATGAGCTGTCACTTCTTAGTAATAAGTTGAGAGAG

The subject of one data set is Arabidopsis. The data set is described as follows: Ribo-seq and RNA-seq global translatome profiling (translational efficiency TE, mORF/uORF ribo-shift) upon elf18 treatment. In kind it is in vivo. The arrangement: key to score (Ribo-shift): Up: ribo-shift up (i.e., increased mORF/uORF ratio); Down: ribo-shift down (i.e., decreased mORF/uORF ratio). The conditions noted are these: shift of mORF/uORF ratio, elf18 vs Mock; per uORF.
Take B1: the “score (Ribo-shift)” value is reported as “Up”.

Still in this data set, the particulars now being: translational efficiency fold change, elf18 vs Mock; listed as shows 5′ UTR of the transcript.
For the molecule B2, the “score (TE change)” value was “TEdown (389 genes displayed decreased TEfc (|z|≥1.5))”.
On the same count and under the same terms, the same measure for B3: “TEup (448 had increased TEfc)”; for B4: “TEdown (389 genes displayed decreased TEfc (|z|≥1.5))”; for B5: “TEdown (389 genes displayed decreased TEfc (|z|≥1.5))”.
On the same count and under the same terms, the same measure for B6: “TEup (448 had increased TEfc)”; for B7: “TEup (448 had increased TEfc)”; for B8: “TEup (448 had increased TEfc)”.
As for B9, the “score (TE change)” value is “TEup (448 had increased TEfc)”.
B10: the “score (TE change)” value is “TEdown (389 genes displayed decreased TEfc (|z|≥1.5))”.
Turning to B11, the “score (TE change)” value was “TEup (448 had increased TEfc)”.
On the same count and under the same terms, the same measure for B12: “TEdown (389 genes displayed decreased TEfc (|z|≥1.5))”; for B13: “TEdown (389 genes displayed decreased TEfc (|z|≥1.5))”; for B14: “TEdown (389 genes displayed decreased TEfc (|z|≥1.5))”.
In the case of B15, the “score (TE change)” value is given as “TEup (448 had increased TEfc)”.
